This test concerns the target T1, Recombinant human GST-Syt1-C2AB domain (human, UniProt P21579 81-422).
T1 construct: human synaptotagmin 1, cytoplasmic C2AB domains (C2A and C2B); Construct was a gift (Dr. Namgi Lee); also called C2AB fusion protein; GST-fused cytoplasmic (C2AB) domains of Syt1; not shown: GST, N-terminal, kept
The test is described as follows: pull-down; GST fusion protein on beads incubated with cleared extracts of transfected HEK293T cells (1 mg at 1 mg/ml) for 4 h at 4 °C; lysis buffer 20 mM Tris-HCl pH 8.0, 137 mM NaCl, 2 mM EDTA, 1% Triton X-100; bound proteins detected by immunoblot for HA. The conditions noted are these: one partner purified.

T1 sequence (P21579 81-422): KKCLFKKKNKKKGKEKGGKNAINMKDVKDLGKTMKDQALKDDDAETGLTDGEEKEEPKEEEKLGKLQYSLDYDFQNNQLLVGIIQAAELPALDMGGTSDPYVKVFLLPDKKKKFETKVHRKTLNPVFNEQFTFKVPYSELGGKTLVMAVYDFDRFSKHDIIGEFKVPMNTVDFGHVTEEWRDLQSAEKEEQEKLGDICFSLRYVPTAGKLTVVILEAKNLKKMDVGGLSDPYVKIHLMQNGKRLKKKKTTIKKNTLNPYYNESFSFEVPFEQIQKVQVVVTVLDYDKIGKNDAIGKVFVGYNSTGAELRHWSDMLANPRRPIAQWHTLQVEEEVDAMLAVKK

B1: HA-SGIP1α-mut (W771A/K781A) (natural protein, mouse, UniProt Q8VD37-6 1-854, looked up)
chain: MMEGLKKRTRKAFGIRKKEKDTDSTGSPDRDGMQGKKKAQKTQLLLTSCFWLRALSLTLSQQPSPHEPPYHSKAECAREGGKKASKKSNGAPNGFYAEIDWERYNSPELDEEGYSIRPEEPGSTKGKHFYSSSESEEEEESHKKFNIKIKPLQSKDVLKNAATVDELKASIGNIALSPSPVRKSPRRSPGAIKRNLSSEEVARPRRSTPTPELTSKKPLDDTLALAPLFGPPLESAFDEQKTEVLLDQPEIWGSGQPMNPSTESPELARPFPTGTPPPLPPKTVPATPPRTGSPLTVATGNDQAATEAKIEKLPSISDLDSIFGPVLSPKSVAVNTEEKWVHFSDASPEHVTPELTPREQVVTPPAASDIPADSPAPAPPGPTGSAGPPGPPGPRHVPSPLNLEEVQKKVAEQTFIKDDYLETLSSPKECGLGQRATPPPPPPPTYRTVVSSPGPGSGSGTGTTSGASSPARPATPLVPCSTTPPPPPPRPPSRPKLPPGKPGVGDVSRPFSPPIHSSSPPPIAPLARAESTSSISSTNSLSAATTPTVENEQPSLVWFDRGKFYLTFEGSSRGPSPLTMGAQDTLPVAAAFTETVNAYFKGADPSKCIVKITGEMVLSFPAGITRHFANNPSPAALTFRVVNSSRLEHVLPNPQLLCCDNTQNDANTKEFWVNMPNLMTHLKKVSEQKPQATYYNVDMLKYQVSAQGIQSTPLNLAVNWRCEPASTDLRIDYKYNTDAMSTAVALNNVQFLVPIDGGVTKLQAVLPPAVANAEQQRILWAIPDISQKSENGGVGSLLARFQLSEGPSKPSPLVVQFTSEGSTLSGCDIELVGAGYRFSLIKKRFAAGKYLADN
notes: numbers count on: SGIP1α (NM_001285852.1); Made by site-directed mutagenesis; also called HA-SGIP1α mutant W771A/K781A; W771A/K781A mutant; source: HEK293T, transfected, in lysate
B1: the “relative band intensity (SGIP1α = 1)” value was 0.2 relative to SGIP1α.

(Values after publication PMC6499997, “SGIP1α functions as a selective endocytic adaptor for the internalization of synaptotagmin 1 at synapses” (Molecular Brain, 2019).)
